Results on 34 sequences are retold here after the domain aggregation screens of Martell et al. (2025).

Where only a bound is given, the exact number is not on record here.

A short description of the data set: soluble fraction after stress (log2 fold change); higher = more stays soluble; pooled small domains, quantitative proteomics. The settings on record: stress: pH 4. The method in brief: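 Values are on a log2 scale, where higher means more of the domain stayed soluble after pH 4 stress. They are fold changes in the soluble amount of each domain from pooled custom libraries, measured by high-throughput quantitative proteomics. The fold change is taken to reflect aggregation propensity.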
For the sequence “HMREGRERRLSQLLSYLRTHHILTRSEYVKLTGLSPTAASSELKTFVTAGHIVRKGIASHSTYRLPH”, the “soluble fraction (log2)” value was 0.00826.

Turning to “HMREKLKEYVHLLFAGTVGKEDMEQEILQNTLDRFDDWVARGFSEEDAYRKAVSGIGDIDALLG”, the “soluble fraction (log2)” value is -2.07.

Consider “HMREPDPELTASIKSMAESNDQSERLVALAQLSEQRAVDPEVADQILLIALLDEDPIIRGQAVYA”, for which the “soluble fraction (log2)” value was 0.0401.

With “HMRERLPFGFAQSKKVVLLSTESDTPKVLSVNWPSLDLYAELKRVIGRAFLLEIVSEEEFQAQVSDAYQRD”, the “soluble fraction (log2)” value is -1.48.

As to “HMREVGVPNLRGLTAEEAQIVLSNAGLNLRTEPIRRVHETITVGRIAEQDPMPDLTIRSQRSVTTWLSSGP”, the “soluble fraction (log2)” value is -0.268.

Turning to “HMREVTVGSAVRLKKGAKTYSGGSLASFVYERNHQVTQLSGDRAVISFKGTVVAAVHKDDLIL”, the “soluble fraction (log2)” value is -0.0626.

With “HMREVVLNRIGSVAVQRATTRTWEEWVVTLDAEGMRGKEHRDVVGHLLRAHELTSWWAQMVSVGYEQSRGQ”, the “soluble fraction (log2)” value was -0.155.

Turning to “HMREYRITAEEGHPRIDVFLAGRPEIGLSRSRIQALIDEGQVTLNGAMPKARQAVNPGDVIVVRVPDPE”, the “soluble fraction (log2)” value is -0.336.

On to “HMRFEWFDTLTDREKEIFGLIATGFDNQQIADRLQLAEQTVRNNISTIYSKLEVKDRFEIIRLANTI”, for which the “soluble fraction (log2)” value is -1.29.

On to “HMRFKPLAEILAAVQTRYAGRVLDVELDRDQAGRNVYEVKLLAADGSRREIHIDAVTGKEVSL”, for which the “soluble fraction (log2)” value worked out at 0.178.

Take “HMRGAIKMAEEQMAGHKKIGSISGTAPTQGELEKKFAMAAAQMGARYYVITGLSNNNYAFGNADIY”: the “soluble fraction (log2)” value is -0.194.

“HMRGDEDTGVWPTPMKRAYIDSLLKGYPTGVTMIVKPPGASHTTKWMILDGANRARALRDFMNDEFMI”: the “soluble fraction (log2)” value is -0.155.

In the case of “HMRGFTDFEHIEKEYLATIEKLNWPDGVTLPDKLEGEDTGTSFQVGYGDTRASNLWEYSWMK”, the “soluble fraction (log2)” value was -1.15.

In the case of “HMRGIPEEVADVAIQWVARLDSNEISDADRAAFFAWLDASPINRWAYNDISESWAKLSILNEMGH”, the “soluble fraction (log2)” value is -1.8.

For the sequence “HMRGLFTVYMVGEKASRVGELDEEMVYESRIGDVFALGATSWRIEEITHDRVLVSPAYGQPGRLPFWH”, the “soluble fraction (log2)” value was -1.72.

Turning to “HMRGLGDLEPVDSLGKIRIDDGHMVLAFGRHKGRHLSEVQAEDPRYIHWLLSPKGIEDVEAREKVKVYLEG”, the “soluble fraction (log2)” value is -0.136.

With “HMRGLLSQREHDVLDLVARGFSYGEIARLRSISVSTVQTHIKNLYRKLAVSSRTEAVYEAKQMGI”, the “soluble fraction (log2)” value is -0.755.

Take “HMRGLVPEIVGTLEGEIRAGTLAVGQKLPTEAEIMARFDVSRTVVREALSRLQASDLVETRHGIGTFVSAR”: the “soluble fraction (log2)” value turned out to be 0.163.

For “HMRGPDLSKDFHEYISSQWMFFGRNAYQIAEQINKDTQLMSKYGKTTPSGVHYHIKQIQQEMEN”, the “soluble fraction (log2)” value is -0.984.

For “HMRGPPQVLVDVELEDGRVGQIGVRNGDDATELAETFVRAFRLEQSFVGRLANVIQGKIRELLHSQ”, the “soluble fraction (log2)” value is -1.17.

As to “HMRGSRIFSGDVSPLTLPANSPFFSGYTEFKPGDVYVERSATNIAMWEWKSQPGGYTWVKTADIA”, the “soluble fraction (log2)” value worked out at 0.22.

Take “HMRGYGDRIRILRERAGITIEQLAERLGVAPYFIRRTELSEVYPTKPYIEALADVLNIDASYLARHI”: the “soluble fraction (log2)” value is -0.972.

“HMRHYVLKENNGVIAIYKVNQENEAVFKENTQIQVQYLPEVDLINLKKGIYAIGEEKLNSILEDF”: the “soluble fraction (log2)” value was -0.892.

Regarding “HMRIDSFEDARRRFEYDYLTRLLKLTQGSVTQAAKLAKRNRTEFYKLLQRHGIEAAHFKPTS”, the “soluble fraction (log2)” value is no less than 0.43.

On to “HMRIDVWLAENGFAPSRQKAQDLIAAGRVFQTDPSGRRQKVSKASAAVDPALSPKIEVIPDPE”, for which the “soluble fraction (log2)” value was 0.068.

As for “HMRILGIDPGYAITGYSIIDYVGNKFKLIDSGAVLTKAGVSFPLRLTKIYDDLSMIIDEYKPDA”, the “soluble fraction (log2)” value was -0.42.

Consider “HMRIPANIAEDIKKLQKKEHHLHHHLGRDPFDDELAKELEWDTEQVSEIRQMIKNPELLEELLEAEREEE”, for which the “soluble fraction (log2)” value is -1.2.

For the sequence “HMRITEQRRTLAKLFADTPGYLSPKDVYDYMGRFYPGLSFDTVYRNLRLLDELGVLEQVVFEDGVKFK”, the “soluble fraction (log2)” value was -0.677.

In the case of “HMRIWTISDLYKNVEDKKVSLAVFSEDNDSNKVNVLDINGEEHSVNLLKADLPTLVDLFRKNDVRFAVRSN”, the “soluble fraction (log2)” value worked out at 0.259.

“HMRIWTPEMIKEYIISSNGKEPLNSHYYSTNHPSIYAAAERIFGSWGNAINAAGLDYNAIRKYK”: the “soluble fraction (log2)” value was -0.0687.

In the case of “HMRIYFSPSEIGFYHESDKQAYLLAGTWPNDLLEISEKWFLYLLEGQQKGKVITVNDYDQPVLVD”, the “soluble fraction (log2)” value was -2.28.

As to “HMRIYTKDEYLAELSRYLHKLPQDDYESAMAYFREYFEEAGPENEAQAMRDLGTPKEAASEILQNLLH”, the “soluble fraction (log2)” value was -0.162.

As for “HMRKDYTVLYSAVNAEEATEIVSKLQESGVAYQYKDNGDVLVDKKQVDKVRAQLAQEGYPKS”, the “soluble fraction (log2)” value is -0.204.

Take “HMRKIEDVLRLHAQGMSTRRIALATGVGKTTVIEYLRRAAVAGLSWPLPEGLDEEALERRVFPPPP”: the “soluble fraction (log2)” value was 0.282.
